In assay [1] the target is T1, human MerTK expressed on cells (human, UniProt Q12866 21-999).
T1 construct: whole, on cells; also called CHO-K1-hMerTK; CHO-K1-MerTK
T1 sequence (looked up): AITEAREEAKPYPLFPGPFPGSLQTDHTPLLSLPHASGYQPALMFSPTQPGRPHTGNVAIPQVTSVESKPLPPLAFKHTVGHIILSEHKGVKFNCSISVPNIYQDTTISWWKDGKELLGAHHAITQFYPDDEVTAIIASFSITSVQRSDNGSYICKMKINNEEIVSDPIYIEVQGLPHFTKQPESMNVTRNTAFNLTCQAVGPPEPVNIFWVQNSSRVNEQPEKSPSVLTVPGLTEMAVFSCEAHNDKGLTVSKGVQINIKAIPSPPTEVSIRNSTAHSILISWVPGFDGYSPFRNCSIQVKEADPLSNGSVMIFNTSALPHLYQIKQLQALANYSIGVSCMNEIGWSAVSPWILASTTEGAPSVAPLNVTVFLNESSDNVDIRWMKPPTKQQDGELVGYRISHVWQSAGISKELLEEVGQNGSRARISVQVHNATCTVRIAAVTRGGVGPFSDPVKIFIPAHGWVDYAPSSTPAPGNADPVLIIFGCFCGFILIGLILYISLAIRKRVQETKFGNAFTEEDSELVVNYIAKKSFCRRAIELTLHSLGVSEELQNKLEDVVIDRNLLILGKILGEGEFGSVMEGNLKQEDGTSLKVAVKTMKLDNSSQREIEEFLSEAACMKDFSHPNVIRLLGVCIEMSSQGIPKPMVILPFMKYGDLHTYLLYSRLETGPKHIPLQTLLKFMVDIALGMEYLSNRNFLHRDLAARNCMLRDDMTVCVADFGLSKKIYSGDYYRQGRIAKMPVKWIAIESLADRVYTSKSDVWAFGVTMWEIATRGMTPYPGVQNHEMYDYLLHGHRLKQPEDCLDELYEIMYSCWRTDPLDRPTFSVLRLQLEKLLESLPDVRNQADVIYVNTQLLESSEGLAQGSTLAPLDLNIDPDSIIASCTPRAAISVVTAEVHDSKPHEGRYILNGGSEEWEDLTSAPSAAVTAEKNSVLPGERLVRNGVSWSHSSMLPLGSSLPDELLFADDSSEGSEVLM
Description: FACS on CHO-K1 cells overexpressing human MerTK, MFI (PE). How it is done:
To evaluate the binding property to the antigen expressed on the cells, the chimeric monoclonal antibodies were analyzed for their binding to human MerTK overexpressed on CHO-K1 cells by FACS. Briefly, human MerTK overexpressing CHO-K1 (CHO-K1-MerTK) cells were firstly incubated with 5-fold serially diluted mAbs starting at 20 nM at 4° C. for 1 hour. After washing with FACS buffer, the PE conjugated anti-human IgG-Fc secondary antibody was added to each well and incubated at 4° C., for 30 mins. The mean fluorescence intensity (MFI) of PE were evaluated by QuantAnalyzer 16.

The target in assay [2] is T2, cyno MerTK-his protein (cynomolgus, UniProt A0A2K5V1H9 27-505).
T2 construct: also called cyno MerTK protein; Cynomolgus
T2 sequence: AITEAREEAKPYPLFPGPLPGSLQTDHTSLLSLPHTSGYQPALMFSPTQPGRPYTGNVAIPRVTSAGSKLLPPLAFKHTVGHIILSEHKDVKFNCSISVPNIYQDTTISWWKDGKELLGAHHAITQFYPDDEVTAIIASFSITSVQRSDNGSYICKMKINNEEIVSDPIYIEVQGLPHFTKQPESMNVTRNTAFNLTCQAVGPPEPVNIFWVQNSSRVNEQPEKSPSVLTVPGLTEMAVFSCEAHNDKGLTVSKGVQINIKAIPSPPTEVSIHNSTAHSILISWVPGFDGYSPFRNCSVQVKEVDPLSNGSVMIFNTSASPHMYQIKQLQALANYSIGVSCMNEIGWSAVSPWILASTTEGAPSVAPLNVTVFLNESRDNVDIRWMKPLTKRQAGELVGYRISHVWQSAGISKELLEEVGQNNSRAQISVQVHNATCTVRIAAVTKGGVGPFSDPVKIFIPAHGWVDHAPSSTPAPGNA
Description: ELISA, plate coated with cyno MerTK-his, anti-human IgG Fc-HRP, OD 450nm. A general note: In an ELISA, binding on a coated surface is turned into a signal by an enzyme label.

Assay [3] deals with T3, human MerTK-his protein (human, UniProt Q12866 21-505).
T3 construct: extracellular domain; also called hMerTK-His; human MerTK protein
T3 sequence (looked up): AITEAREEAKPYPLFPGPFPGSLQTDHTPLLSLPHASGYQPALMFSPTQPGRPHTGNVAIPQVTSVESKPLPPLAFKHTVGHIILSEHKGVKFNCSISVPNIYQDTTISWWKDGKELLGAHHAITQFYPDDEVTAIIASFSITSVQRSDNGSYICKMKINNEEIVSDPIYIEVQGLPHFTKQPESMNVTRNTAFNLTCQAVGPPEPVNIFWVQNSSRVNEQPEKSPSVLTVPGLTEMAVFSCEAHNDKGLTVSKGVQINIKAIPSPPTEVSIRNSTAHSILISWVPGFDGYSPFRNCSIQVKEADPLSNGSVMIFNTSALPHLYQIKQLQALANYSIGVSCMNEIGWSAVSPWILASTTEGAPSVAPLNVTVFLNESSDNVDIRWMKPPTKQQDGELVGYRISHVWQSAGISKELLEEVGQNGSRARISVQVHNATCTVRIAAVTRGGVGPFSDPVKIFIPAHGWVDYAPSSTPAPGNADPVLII
Description: ELISA, plate coated with human MerTK-his, OD 450nm.

In assay [4] the target is T3, human MerTK-his protein. The assay is described as follows: SPR Biacore 8K, antibody captured on Protein A chip, 50 nM antigen. The procedure, abridged: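 Antibodies captured on a Protein A chip; human MerTK-his at 50 nM injected for 180 s at 30 μL/min, then 600 s dissociation. Single-concentration affinity ranking on Biacore 8K.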
For orientation: In SPR one partner is held on a chip, and binding of the other changes the refractive index at the surface.

B1: h13B4.v16 benchmark antibody (antibody, V domains shown)
VH: EVQLVESGEGLVQPGGSLRLSCAASGFSLSSYAMGWVRQAPGKGLEYVGIINSYGNTYYANWAKGRFTISRDNSKNTVYLQMGSLRAEDMAVYYCARDPGVSSNLWGRGTLVTVSS
VL: DIQMTQSPSTLSASVGDRVTITCQASQNIYSGLAWYQQKPGKAPKLLIYGASKLASGVPSRFSGSGSGTEFTLTISSLQPDDFATYYCQATYYSSNSVAFGGGTKVEIK
What is called EC50 is the concentration at which the effect is half-maximal. Turning to B1, in assay [1], the EC50 worked out at 0.17 nM and the Top was 5920 MFI (PE). In assay [2], a half-maximal response (EC50) required 0.027 nM.

B2: 10F7D9 chimeric monoclonal antibody (antibody, V domains shown)
VH: QIQLVQSGPELKKPGETVKISCKASGYTFTNYGMNWVKQAPGKGLKWMGWINTYTGEPTYADDFKGRFAFSLETSASTAYLQINNLKNEDLATYFCATYGHYAWFAYWGQGTLVTVSA
VL: QIVLSQSPAILSASPGEKVTMTCRASSSVSYMHWYQQKSGSSPKPWIYATSNLASGVPARFSGSGSGTSYSLTISRVEAEDAATYFCQQWGTKPLTFGAGTKLELK
In the case of B2, in assay [1], the EC50 came to 0.04 nM and the Top is 10800 MFI (PE). In addition, in assay [3], the EC50 stood at 0.024 nM.

B3: 85H8D5 chimeric monoclonal antibody (antibody, V domains shown)
VH: QIQLVQSGPELKKPGETVKISCMASGYTFTTHGVTWVKQAPGQGLQRMGWINTYSGVPTYADDFKGRFVFSLETSANTAHLQINNLKNEDTATYFCARTNNYRYFDVWGTGTTVTVSS
VL: QIVLSQSPAILSSSPGEKVTMTCRASSSVSYMHWYQQKPGSSPKPWIYATSNLASGVPARFSGSGSGTSYFLTISRVEAEDAATYYCQQWNTDPPTFGGGTKLEIK
B3: in assay [1], the EC50 amounted to 0.054 nM and the Top is 10500 MFI (PE).

B4: 216G3D6 chimeric monoclonal antibody (antibody, V domains shown)
VH: QVTLKESGPGILQPSQTLSLTCSFSGFSLSTSGMGVGWIRQPSGKGLEWLAHIWWDDDKHCNPALKSRLTISKDTSSNQVFLKIASLDTADTATYYCTQMTMTREFAYWGQGTLVTVSA
VL: DIQMTQTISSLSASLGDRVTISCSAGQGISNYLNWYQQKPDGTVKLLIYYTSRLHSGVPSRFSGSGSGTDFSLTISNLEPEDIATYFCQQYSKFPYTFGGGTKLEIK
B4: in assay [1], the midpoint of the response, the EC50, lay at 0.17 nM and the Top is 11000 MFI (PE).

B5: 252H9D5 chimeric monoclonal antibody (antibody, V domains shown)
VH: QVTLRESGPGILQPSQTLSLTCSFSGFSLNTFGMGVGWIRQSSGKGLKWLAHIWWDDDKFYNPALKSRLTISKDTSKNQVFLKIANVDTTDTATYYCARIEGGLPYYYDYWGQGTPLIVSS
VL: DIVMTQSQKIMSTSVGDRISVTCKASQIVGTNVVWYQQKPGQSPKALIYSTSYRYSGVPDRFTGSRSGTDFTLTISNVQSEDLANYFCQQYNSYPFTFGSGTKLEIK
Turning to B5, in assay [1], the EC50 stood at 0.12 nM and the Top was 7290 MFI (PE).

B6: 252C12B10 chimeric monoclonal antibody (antibody, V domains shown)
VH: QVQLQQPGTELVKPGASVKLSCKTSGYTFTSYWMHWMKQRPGQGLEWLGHINPSTGGSNYNEKFKSKATLTVDKSSNTAYMQLSSLTSEDSAVYYCARPRGFYGYSYWYFDVWGSGTTVTVSS
VL: DIQMTQTTSSLSASLGDRVTISCSASQDINNYLNWYQHKPDGTIKVLIYFTSSLHSGVPSRFSGSGSGTEYSLTISNLEPEDIATYYCQQYSKLPPTFGSGTKLEIK
Turning to B6, in assay [1], it took 0.063 nM to reach a half-maximal effect (EC50) and the Top was 6040 MFI (PE).

B7: 247E5A8 chimeric monoclonal antibody (antibody, V domains shown)
VH: DVQLQESGPGLVKPSQSLSLTCSVTGYSITGGYYWTWIRQFPGNKLEWMGYISYDGDNNYNPSLKNRISITRDTSKNQFFLNLNSVTTEDTATYYCAREGGRLRTMDYWGQGTSVTVSS
VL: QIVLTQSPAIMSASPGEKVTITCRASSSVNYMHWFQQKPGTSPKLWIYTTSNLASGVPARFSGSGSGTSYSLTISRMEAEDAATYYCQQRSSYPFTFGSGTKLEIK
Consider B7, for which, in assay [1], the midpoint of the response, the EC50, lay at 0.12 nM and the Top is 10800 MFI (PE).

B8: 265F11B5 chimeric monoclonal antibody (antibody, V domains shown)
VH: QVQLQQSGPELVKPGASVRLSCKASGYTFTTYDINWVKQRPGLGLEWIGWIYPRDGYTKYNEKFKGRATLAVDTSSSTAYMELHSLTSEDSAVYFCTRGYYDNLYYFDYWGQGTTLTVSS
VL: EIVLTQSPTTVAASPGEKITITCSASSIISSNYFHWYQQRPGFSPKLLIYRTSNLASGVPARFSGSGSGTSYSLTIGTMEAEDVATYYCQQGRSVPLTFGAGTKLELK
For orientation: Kd means the constant that tells how readily two partners part at equilibrium. Low values mean a tighter complex, high ones a looser complex. The koff is a measure of how fast the partners let go of each other. The kon is a measure of how fast the partners come together. The low end stands for slow association, the high end for fast association. Regarding B8, in assay [4], the Kd is 0.392 nM, the koff is 7.78e-05 s⁻¹ and the kon was found to be 199000 M⁻¹ s⁻¹. This molecule also yielded a half-maximal effective concentration (EC50) in assay [3] of 0.036 nM.

B9: 254B4D9 chimeric monoclonal antibody (antibody, V domains shown)
VH: QIQLVQSGPELKKPGETVKISCKASGYTFTAYGMSWVKQAPGKGLQWMGWINTYSGVPTYTDDFKGRFAFSLEASASTAFLQINNLKNEDTSTYFCARRAAVVAKYWYFDVWGTGTTVTVSS
VL: DIQMTQSPSSLFASLGGKVIITCKSSQDINKRISWYQHKPGKGPRLLIHSTSSLQPGIPLRFSGSGSGRDYSFSISNLEPEDIATYFCLQYDNLLTFGAGTKLELK
As for B9, in assay [4], the Kd stood at 34.9 nM, the koff worked out at 0.000785 s⁻¹ and the kon was determined as 22500 M⁻¹ s⁻¹. In assay [3], the EC50 turned out to be 0.095 nM.

The values above are taken from patent US20260028422A1 (CONCEPT TO MEDICINE BIOTECH, published 2026).
